Source: paper PMC6941969

Target: VemH (Streptomyces venezuelae ATCC 10712)

- apparent Kd from enzyme activity: initial velocities of venemycin production (HPLC) at constant 0.2 µM VemH and 0.1–8.0 µM VemG, fit with a quadratic binding equation: 5.1 µM
Substance: VemG (enzyme)
